Here are results for 1 protein from PMC11661312, “The identification of XPR1 as a voltage- and phosphate-activated phosphate-permeable ion channel” (Research Square, 2024).

Broadly, the stoichiometry N is a count of units in the complex or per binding partner.

This data set deals with the molecule itself. Kind of data set: cryo-EM structure; purified hXPR1 at 10 to 20 mg/mL in GDN/LMNG/CHS detergent mixture; apo: 20 mM Tris pH 7.4, 150 mM NaCl (C1 symmetry); also with 25 mM sodium phosphate, 150 mM NaCl, 1 mM phytic acid (InsP6) pH 7.4 (C2 symmetry imposed).

B1: human Xenotropic and Polytropic retrovirus Receptor 1 (hXPR1) (natural protein, UniProt Q9UBH6 1-696, looked up)
chain: MKFAEHLSAHITPEWRKQYIQYEAFKDMLYSAQDQAPSVEVTDEDTVKRYFAKFEEKFFQTCEKELAKINTFYSEKLAEAQRRFATLQNELQSSLDAQKESTGVTTLRQRRKPVFHLSHEERVQHRNIKDLKLAFSEFYLSLILLQNYQNLNFTGFRKILKKHDKILETSRGADWRVAHVEVAPFYTCKKINQLISETEAVVTNELEDGDRQKAMKRLRVPPLGAAQPAPAWTTFRVGLFCGIFIVLNITLVLAAVFKLETDRSIWPLIRIYRGGFLLIEFLFLLGINTYGWRQAGVNHVLIFELNPRSNLSHQHLFEIAGFLGILWCLSLLACFFAPISVIPTYVYPLALYGFMVFFLINPTKTFYYKSRFWLLKLLFRVFTAPFHKVGFADFWLADQLNSLSVILMDLEYMICFYSLELKWDESKGLLPNNSEESGICHKYTYGVRAIVQCIPAWLRFIQCLRRYRDTKRAFPHLVNAGKYSTTFFMVTFAALYSTHKERGHSDTMVFFYLWIVFYIISSCYTLIWDLKMDWGLFDKNAGENTFLREEIVYPQKAYYYCAIIEDVILRFAWTIQISITSTTLLPHSGDIIATVFAPLEVFRRFVWNFFRLENEHLNNCGEFRAVRDISVAPLNADDQTLLEQMMDQDDGVRNRQKNRSWKYNQSISLRRPRLASQSKARDTKVLIEDTDDEANT
notes: Xenotropic and Polytropic retrovirus Receptor 1 (XPR1), human, Uniprot Q9UBH6, full length; cDNA synthesized with a C-terminal Strep-tag II; Homodimer in the detergent mixture (GDN/LMNG/CHS) by cryo-EM; also called SLC53a1; apo-hXPR1
For the protein B1, the “stoichiometry N” value stood at 2.
